# Reference: patent US7790155B2, “Calbindin-D28K protection against glucocorticoid induced cell death” (University of Medicine and Dentistry of New Jersey, priority 2002, dated 2010)
# “Also recorded” adds a separate entry of the source.
# B1: calbindin-D28k: calcium binding protein (polypeptide of SEQ ID NO:2), expressed in cells from pREP4 or BSRα calbindin-D28k expression vectors (protein, listed as Homo sapiens)
# chain: MAESHLQSSLITASQFFEIWLHFDADGSGYLEGKELQNLIQELQQARKKAGLELSPEMKTFVDQYGQRDDGKIGIVELAHVLPTEENFLLLFRCQQLKSCEEFMKTWRKYDTDHSGFIETEELKNFLKDLLEKANKTVDDTKLAEYTDLMLKLFDSNNDGKLELTEMARLLPVQENFLLKFQGIKMCGKEFNKAFELYDQDGNGYIDENELDALLKDLCEKNKQDLDINNITTYKKNIMALSDGGKLYRTDLALILCAGDN
# Legend:
# primary osteoblasts = assay: Dexamethasone induced cell death of primary osteoblasts, trypan blue uptake; type: cell-based, murine; conditions: 16 h dex. treatment (10^−6M)
# Protocol: Cell viability was monitored by trypan blue exclusion. Nonadherent cells were combined with adherent cells released from the culture dish using trypsin-EDTA, resuspended in medium containing serum and collected by centrifugation. 0.04% trypan blue was added and the 150 cells per condition are counted). DNA fragmentation was measured by the TUNEL (transferase biotin-dUTP nick endlabeling). […] 104, 1363-1374; and Bellido, T., O'Brien, C. A., Roberson, P. K., and Manolagas, S. C. (1998) J. Biol. Chem. 273, 21137-21144).
# In addition to MLO-Y4 cells, it will also be possible to determine the effect of dexamethasone in the presence or absence of calbindin-D28k on apoptotic cell death and on caspase 3 activity (with the methodology outlined above) using primary osteoblastic cells from calbindin-D28k KO and WT mice. Murine osteoblasts will be isolated from pups 30-72 h old from our colony of WT (C57BL6) or calbindin-D28k KO mice (cite 22 of grant, cite 111 of grant) by controlled digestion with collagenase (cite 112 of grant). Briefly calvariae, trimmed of fibrous tissue and divided in 2 are transferred to 15 ml conical sterile tubes, washed with PBS (5 ml) 3× at 37° C. (10 min/wash) in an oscillating H2O bath. Calvariae are then subjected to a series of collagenase digestions (200 μg/Ml PBS collagenase CLS2 from Worthington) in an oscillating 37° C. […]
# MLO-Y4 osteocytic cells = assay: Dexamethasone induced cell death of MLO-Y4 cells transfected with calbindin-D28k expression vector (trypan blue, TUNEL, morphology); type: cell-based, murine; conditions: MLO-Y4 cells transfected with pREP4 or BSRα calbindin-D28k vector vs vector alone, 10^−6M dexamethasone, 6, 12 and 24 h
# Protocol: Murine osteocytic MLO-Y4 cells (provided by Dr. Lynda Bonewald, University of Texas Health Center at San Antonio, Tex.), and primary bone cells (isolated from neonatal murine calvaria) were cultured as indicated previously (Kato, Y., Windle, J. J., Koop, B. A., Mundy, G. R., and Bonewald, L. F. (1997) J. Bone Miner Res. 12, 2014-2023) (Bellido, T., Borba, V. Z. C., Roberson, P. K., and Manolagas, S. C. (1997) Endocrinology 138, 3666-3676). All culture media contained 100 units/ml penicillin and 100 μg/ml streptomycin. Cultures were kept in a humidified atmosphere of 5% CO2 in air at 37° C.
# Transient transfections of MLO-Y4 cells were carried out in 12-well culture plates using SUPERFECT®. […] After 6, 12 and 24 h, apoptosis was induced by addition of 10^−6M dexamethasone and quantified as indicated below or cell lysates collected for the analysis of calbindin-D28k by Western blotting and radioimmunoassay (cite 65 of grant).
# Cell viability was monitored by trypan blue exclusion. […] 0.04% trypan blue was added and the 150 cells per condition are counted). DNA fragmentation was measured by the TUNEL (transferase biotin-dUTP nick endlabeling). […]
# Data were analyzed by one-way analysis of variance, and the Student-Keuls-Newman method was used to estimate the level of significance of differences between means. […]
# MC3T3-E1 cells = MC3T3-E1 cells transfected with calbindin-D28K cDNA vs empty vector; cited from earlier work
# lymphocytes = conditions: stable expression of calbindin-D28k cDNA in lymphocytes (Dowd et al. 1992); cited from earlier work
Molecule,% of dead cells (trypan blue uptake) (primary osteoblasts; in the absence of calbindin-D28k),protection against glucocorticoid (dexamethasone) induced cell death (MLO-Y4 osteocytic cells),protection against glucocorticoid (dexamethasone) induced cell death (MLO-Y4 osteocytic cells; listed as calbindin-D28K),"% of dead cells (trypan blue uptake) (primary osteoblasts; in the presence of calbindin-D28k, p<0.05)",pro-apoptotic effect of TNF (nuclear fragmentation) (MC3T3-E1 cells),protection against glucocorticoid induced lymphocyte cell death (lymphocytes)
"C[C@@H]1C[C@H]2[C@@H]3CCC4=CC(=O)C=C[C@]4(C)[C@@]3(F)[C@@H](O)C[C@]2(C)[C@@]1(O)C(=O)CO [dex., dexamethasone, reference compound]",23.2±3%,,,,,
B1,,protection; also recorded: protected against glucocorticoid induced cell death,protection against dexamethasone induced cell death,12.9±2.4%,significantly attenuated,protect against glucocorticoid induced lymphocyte cell death
